Results published in paper PMC9198812, “Residues located in the primase domain of the bacteriophage T7 primase-helicase are essential for loading the hexameric complex onto DNA”.

Assays:
[1] = target: gp4 WT (T7 primase-helicase) (bacteriophage T7, UniProt P03692 1-566); experiment: double-filter binding; 1 mM [beta,gamma-CH2] dTTP, 10 mM MgCl2; Filter binding: 40 mM Tris-HCl pH 7.5, 50 mM potassium glutamate, 10 mM MgCl2, 5 mM DTT, 1 mM [beta,gamma-CH2] dTTP, 30 min, 25 C; mass photometry: 40 mM Tris-HCl pH 7.5, 150 mM KCl, 10 mM MgCl2, 25 C, 8.7 nM gp4 hexamer, 10 nM ssDNA; settings: protein: recombinant; tags: His (implied: pET28, TALON); chain copies: 6; label: 5'-32P; single strand
gp4-Y111A = gp4-Y111A (bacteriophage T7, UniProt P03692 1-566, Y111A); experiment: as above; settings: protein: recombinant; tags: His (implied: pET28, TALON); chain copies: 6; label: 5'-32P; single strand

ATGACCATGATTTCGACGTTTTTTTTTTTGGGGATCCTCTAACCTGCGCA (ssDNA) [50-nt ssDNA, 5'-32P]
Kd [1]: 14 nM | Kd (gp4-Y111A): 93 nM
